In patent US20050262592:

Tested on: duckweed-produced human microplasminogen
Sequence (chain, as listed by the source): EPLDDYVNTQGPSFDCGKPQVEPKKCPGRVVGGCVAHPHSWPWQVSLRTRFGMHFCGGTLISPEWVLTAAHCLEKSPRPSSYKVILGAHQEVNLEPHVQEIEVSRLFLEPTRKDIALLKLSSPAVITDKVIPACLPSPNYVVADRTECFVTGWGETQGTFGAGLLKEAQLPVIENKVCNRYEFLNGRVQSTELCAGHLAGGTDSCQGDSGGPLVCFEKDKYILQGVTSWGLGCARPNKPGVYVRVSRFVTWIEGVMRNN

urokinase
Western blot: production of the B chain of plasmin: Western blot analysis confirmed the production of the B chain of plasmin following activation of duckweed-produced microplasminogen with either urokinase or tPA
